# Like-named read-outs stand apart in the source and are kept apart here.
# Assays:
# CD3 on CD8 T cells [1] = target: T1, CD3 on CD8 T cells (Homo sapiens (Human), UniProt P07766 23-207); assay: flow cytometry, CD8 T cells in PBMCs, binding ratio % [panel A]
# T1 construct: Native CD3 complex on CD8 T cells among PBMCs; also called T cells (PBMCs gated with anti-human CD8 antibody)
# Experimental: (1) PBMCs were diluted to 2×10⁶/ml with PBS and added to a 1.5 ml EP tube at 100 μl/tube, goat serum was added thereto at 10 μl/tube. The cells were blocked at 4° C. for 30 min. The serially diluted bispecific antibodies, Cross3×Trop2, Cross303×Trop2, Cross307×Trop2, Cross308×Trop2, Cross309×Trop2, Cross310×Trop2, Cross311×Trop2, Cross312×Trop2, Cross313×Trop2, Cross314×Trop2, Cross316×Trop2, Cross317×Trop2, Cross318×Trop2, Cross323×Trop2, Cross325×Trop2, Cross326×Trop2, Cross3×PDL1, Cross313×PDL1, Cross316×PDL1, Cross325×PDL1, and control hIgG1LALA (purchased from Bio-Tech) were added and incubated at 4° C. for 30 min. 1 ml of PBS was added to the EP tube, followed by centrifugation at 3500 rpm for 5 min at 4° C. The supernatant was discarded, and the system was washed again with PBS. After centrifugation, the supernatant was discarded, and the cells were resuspended with PBS at 100 μl/tube. 1 μl/tube Alexa-647-labeled goat anti-human IgG secondary antibody (purchased from Jackson lab) and 0.5 μl/tube PerCP-Cy5.5-labeled anti-human CD8 antibody were added and incubated at 4° C. in the dark for 30 min. The cells were washed twice with PBS. After centrifugation, the supernatant was discarded. The cells were resuspended with 200 μl/tube of PBS and assay is performed by flow cytometry.
# PDL1 protein [2] = target: T2, PDL1 protein (UniProt Q9NZQ7 19-238); assay: ELISA, coated PDL1 protein, OD450 [panel A]
# T2 construct: Bought recombinant protein
# Experimental: (§1) (3) PDL1 protein (purchased from Acro) was diluted to 2 μg/ml with PBS buffer, added to a 96-well plate at a volume of 100 μL/well, and placed at 4° C. overnight. The PBS buffer in the 96-well plate was aspirated, and the plate was washed 6 times with PBST (pH 7.2 PBS containing 0.10% Tween 20) buffer. Then, PBS/10% BSA was added at 200 μL/well and incubated at 37° C. for 2 h for blocking. The blocking solution was removed, and the plate was washed six times with PBST. Then, the to-be-tested bispecific antibodies serially diluted with PBST/0.05% BSA, Cross3×PDL1, Cross303×PDL1, Cross307×PDL1, Cross308×PDL1, Cross309×PDL1, Cross310×PDL1, Cross311×PDL1, Cross312×PDL1, Cross313×PDL1, Cross314×PDL1, Cross316×PDL1, Cross317×PDL1, Cross318×PDL1, Cross323×PDL1, Cross325×PDL1, Cross326×PDL1, and control IgG1LALA (purchased from Bio-Tech) were added at 100 μL/well, and incubated at 37° C. for 1 h. The reaction system was removed, and the plate was washed 6 times with PBST. Then, the cells were incubated at 37° C. for 1 h with HRP (horseradish peroxidase)-labeled anti-human secondary antibody (Fab specific) (purchased from Sigma) serially diluted with PBST/0.05% BSA at 100 μL/well. After the plate was washed six times with PBST, TMB (tetramethylbenzidine) was added at 80 μL/well and incubated at room temperature for 3 min. 4 M sulfuric acid was added at 80 μL/well to terminate the reaction. The absorbance was read at 450 nm using a microplate reader.
# [3] = target: T3, PDL1 on A-375 melanoma cells, HCT-15 colorectal cancer cells and A549 lung cancer cells (UniProt Q9NZQ7 19-290, limits assumed); assay: flow cytometry, A549 cells, MFI [panel B]
# T3 construct: whole, on cells
# Experimental: (2) The tumor cells were diluted to 2×10⁶/ml with PBS and added to a 1.5 ml EP tube at a volume of 100 μl/tube, and goat serum was added thereto at 10 μl/tube. The cells were blocked at 4° C. for 30 min. The serially diluted bispecific antibodies, Cross3×Trop2, Cross303×Trop2, Cross307×Trop2, Cross308×Trop2, Cross309×Trop2, Cross310×Trop2, Cross311×Trop2, Cross312×Trop2, Cross313×Trop2, Cross314×Trop2, Cross316×Trop2, Cross317×Trop2, Cross318×Trop2, Cross323×Trop2, Cross325×Trop2, Cross326×Trop2, and Cross3×PDL1, Cross303×PDL1, Cross307×PDL1, Cross308×PDL1, Cross309×PDL1, Cross310×PDL1, Cross311×PDL1, Cross312×PDL1, Cross313×PDL1, Cross314×PDL1, Cross316×PDL1, Cross317×PDL1, Cross318×PDL1, Cross323×PDL1, Cross325×PDL1, Cross326×PDL1, and control hIgG1LALA (purchased from Bio-Tech) were added and incubated at 4° C. for 30 min. 1 ml of PBS was added to the EP tube, followed by centrifugation at 3500 rpm for 5 min at 4° C. The supernatant was discarded, and the cells were washed again with PBS. After centrifugation, the supernatant was completely discarded, and the cells were resuspended with PBS at 100 μl/tube. Alexa-647-labeled goat anti-human IgG secondary antibody (purchased from Jackson lab) was added at 1 μl/tube and incubated at 4° C. in the dark for 30 min. The cells were washed twice with PBS, and the supernatant was completely discarded after centrifugation. The cells were resuspended with PBS at 200 μl/tube and assay was performed using the flow cytometry.
# PDL1 protein [4] = target: T2, PDL1 protein; assay: ELISA, coated PDL1 protein, OD450 [panel B]
# Experimental: as §1
# CD3 on CD8 T cells [5] = target: T1, CD3 on CD8 T cells; assay: flow cytometry, CD8 T cells in PBMCs, binding ratio % [panel A]; remark: listed apart in the source
# Experimental: PBMCs were diluted with PBS to 2×10⁶/mL and added to a 1.5 ml EP tube at a volume of 100 μL/tube, 10 μL/tube of goat serum was added thereto and incubated at 4° C. for 30 min for blocking. […] 1 mL of PBS was added to the EP tube, followed by centrifugation at 3500 rpm for 5 min at 4° C. The supernatant was discarded, and the cells were washed again with PBS. After centrifugation, the supernatant was discarded, and the cells were resuspended with 100 μl/tube PBS. 1 μl/tube Alexa-647-labeled goat anti-human secondary antibody (purchased from Jackson lab) and 0.5 μl/tube PerCP-Cy5.5-labeled anti-human CD8 antibody were added and incubated at 4° C. in the dark for 30 min. The cells were washed twice with PBS, and the supernatant was discarded after centrifugation. The cells were resuspended with […] of PBS and assayed using the flow cytometry.
# CD3E&D protein [6] = target: T4, CD3E&D protein (UniProt P04234 22-105); assay: ELISA, coated CD3E&D protein, OD450 [panel C]
# T4 construct: Purchased from Acro; also called CD3 E&D antigens; CD3E&D antigen protein
# Experimental: In this example, the binding properties of the parental antibody Cross3 and the CD3 affinity-reduced antibody (the production method and the amino acid sequences of the heavy and light chains were shown in Example 1) were detected by ELISA. The CD3E&D protein was coated onto a 96-well plate by the inventors, and the strength of the signal after the addition of the antibody was used to determine the binding properties of the antibody and CD3E&D.
# CD3E&D protein (purchased from Acro) was diluted to 2 μg/ml with PBS buffer, added to a 96-well plate at a volume of 100 μL/well, and placed at 4° C. overnight. The PBS buffer in the 96-well plate was aspirated, and the plate was washed 6 times with PBST (pH 7.2 PBS containing 0.1% Tween 20) buffer. Then, 200 μL/well PBS/10% BSA was added and incubated at 37° C. for 2 h for blocking. The blocking solution was removed, and the plate was washed six times with PBST. Then, the to-be-tested antibodies serially diluted with PBST/0.05% BSA, Cross3, Cross303, Cross307, Cross308, Cross309, Cross310, Cross311, Cross312, Cross313, Cross314, Cross316, Cross317, Cross318, Cross323, Cross325, Cross326, and control IgG1 (purchased from Bio-Tech) were added at 100 μL/well, and incubated at 37° C. for 1 h. The reaction system was removed, and the plate was washed 6 times with PBST. Then, the cells were incubated at 37° C. for 1 h with HRP (horseradish peroxidase)-labeled anti-human secondary antibody (Fab specific) (purchased from Sigma) serially diluted with PBST/0.05% BSA at 100 μL/well. The plate was washed six times with PBST, TMB (tetramethylbenzidine) was added at 80 μL/well and incubated at room temperature for 3 min. 4 M sulfuric acid was added at 80 μL/well to terminate the reaction. The absorbance was read at 450 nm using a microplate reader.
# CD3E&D protein [7] = target: T4, CD3E&D protein; assay: SPR (Biacore 8K), antibody on CM5 chip, CD3 E&D antigen as analyte; design: Fold change: reference not given here
# Experimental: In a Biacore 8K (Cytiva) system, the antibody was diluted to 10 μg/mL in HBS-EP running buffer and coupled to a CM5 chip (Cytiva) at a flow rate of 10 μL/min.
# T4 sequence (chain, as listed by the source limits assumed, chain 1 of 2): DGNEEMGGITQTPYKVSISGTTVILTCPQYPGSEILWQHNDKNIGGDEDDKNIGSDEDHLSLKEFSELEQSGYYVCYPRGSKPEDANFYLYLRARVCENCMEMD
# T4 sequence (P04234 22-105 limits assumed, chain 2 of 2): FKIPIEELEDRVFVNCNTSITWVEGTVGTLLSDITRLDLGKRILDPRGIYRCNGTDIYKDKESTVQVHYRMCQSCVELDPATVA
# T3 sequence (Q9NZQ7 19-290 limits assumed): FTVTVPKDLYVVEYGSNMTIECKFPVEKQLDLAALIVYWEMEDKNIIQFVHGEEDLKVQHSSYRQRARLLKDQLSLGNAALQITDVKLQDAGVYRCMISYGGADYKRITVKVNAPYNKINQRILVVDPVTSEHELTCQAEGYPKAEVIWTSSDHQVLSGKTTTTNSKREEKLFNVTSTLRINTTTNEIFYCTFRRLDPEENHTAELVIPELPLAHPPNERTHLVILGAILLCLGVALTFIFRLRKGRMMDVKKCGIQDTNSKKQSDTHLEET
# T2 sequence (Q9NZQ7 19-238 limits assumed): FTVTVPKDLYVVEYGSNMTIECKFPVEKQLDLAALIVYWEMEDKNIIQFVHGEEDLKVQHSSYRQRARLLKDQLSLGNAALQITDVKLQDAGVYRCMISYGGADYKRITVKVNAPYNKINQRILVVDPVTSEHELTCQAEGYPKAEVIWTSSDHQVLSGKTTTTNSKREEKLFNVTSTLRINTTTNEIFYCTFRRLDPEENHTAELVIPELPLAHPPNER
# T1 sequence (P07766 23-207 limits assumed): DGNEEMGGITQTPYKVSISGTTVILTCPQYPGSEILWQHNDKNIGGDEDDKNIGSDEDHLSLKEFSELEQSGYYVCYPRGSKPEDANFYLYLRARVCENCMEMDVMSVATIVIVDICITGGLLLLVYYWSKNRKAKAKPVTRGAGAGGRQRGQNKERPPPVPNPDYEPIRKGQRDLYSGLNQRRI
Binder,EC50 (read off the curve) (CD3 on CD8 T cells [1]),EC50 (read off the curve) (PDL1 protein [2]),EC50 (read off the curve) [3],EC50 (read off the curve) (PDL1 protein [4]),EC50 (read off the curve) (CD3 on CD8 T cells [5]),EC50 (read off the curve) (CD3E&D protein [6]),Fold change (CD3E&D protein [7]),Kd (CD3E&D protein [7]),koff (CD3E&D protein [7]),kon (CD3E&D protein [7])
"Cross313×PDL1 (bispecific antibody, human IgG1, kappa, L234A L235A) scFv: not shown heavy: QVQLVQSGAEVKKPGASVKVSCKASGYSFTGYYMHWVRQAPGQGLEWIGRINPYNGATTYSQNFKDRATMTVDTSISTAYMELSRLRSDDTAVYYCVPTGMGYFLMDYWGQGTLVTVSSASTKGPSVFPLAPSSKSTSGGTAALGCLVKDYFPEPVTVSWNSGALTSGVHTFPAVLQSSGLYSLSSVVTVPSSSLGTQTYICNVNHKPSNTKVDKKVEPKSCDKTHTCPPCPAPEAAGGPSVFLFPPKPKDTLMISRTPEVTCVVVDVSHEDPEVKFNWYVDGVEVHNAKTKPREEQYNSTYRVVSVLTVLHQDWLNGKEYKCKVSNKALPAPIEKTISKAKGQPREPQVCTLPPSREEMTKNQVSLSCAVKGFYPSDIAVEWESNGQPENNYKTTPPVLDSDGSFFLVSKLTVDKSRWQQGNVFSCSVMHEALHNHYTQKSLSLSPGK light: DIQLTQSPSFLSASVGDRVTITCKASQDVGSAVVWYQQKPGKAPKLLIYWASTRHTGVPSRFSGSGSGTEFTLTISSLQPEDFATYFCQQFTSYPTFGQGTKLEIKRTVAAPSVFIFPPSDEQLKSGTASVVCLLNNFYPREAKVQWKVDNALQSGNSQESVTEQDSKDSTYSLSSTLTLSKADYEKHKVYACEVTHQGLSSPVTKSFNRGEC",~2 µg/mL,~0.2 µg/mL,~1 µg/mL,,,,,,,
"Cross317×PDL1 (bispecific antibody, human IgG1, kappa, L234A L235A) scFv: not shown heavy: QVQLVQSGAEVKKPGASVKVSCKASGYSFTGYYMHWVRQAPGQGLEWIGRINPYNGATTYSQNFKDRATMTVDTSISTAYMELSRLRSDDTAVYYCVPTGMGYFLMDYWGQGTLVTVSSASTKGPSVFPLAPSSKSTSGGTAALGCLVKDYFPEPVTVSWNSGALTSGVHTFPAVLQSSGLYSLSSVVTVPSSSLGTQTYICNVNHKPSNTKVDKKVEPKSCDKTHTCPPCPAPEAAGGPSVFLFPPKPKDTLMISRTPEVTCVVVDVSHEDPEVKFNWYVDGVEVHNAKTKPREEQYNSTYRVVSVLTVLHQDWLNGKEYKCKVSNKALPAPIEKTISKAKGQPREPQVCTLPPSREEMTKNQVSLSCAVKGFYPSDIAVEWESNGQPENNYKTTPPVLDSDGSFFLVSKLTVDKSRWQQGNVFSCSVMHEALHNHYTQKSLSLSPGK light: DIQLTQSPSFLSASVGDRVTITCKASQDVGSAVVWYQQKPGKAPKLLIYWASTRHTGVPSRFSGSGSGTEFTLTISSLQPEDFATYFCQQFTSYPTFGQGTKLEIKRTVAAPSVFIFPPSDEQLKSGTASVVCLLNNFYPREAKVQWKVDNALQSGNSQESVTEQDSKDSTYSLSSTLTLSKADYEKHKVYACEVTHQGLSSPVTKSFNRGEC",,,~1 µg/mL,~0.2 µg/mL,,,,,,
"Cross323 (antibody, human IgG1, kappa, V domains shown) VH: EVQLLESGGGLVQPGGSLKLSCAASGFTFNTYAMNWVRQAPGKGLEWVARIRSKYNNYATYYADSVKDRFTISRDDSKNTAYLQMNNLKTEDTAVYYCVRHGNFGNSYVSWFAYWGQGTLVTVSS VL: ELVVTQEPSLTVSPGGTVTLTCRSSTGAVTTSNYANWVQQKPGQAPRGLIGGTNKRAPGTPARFSGSLLGGKAALTLSGVQPEDEAEYYCALWYPNLWVFGGGTKLTVLR",,,,,~0.3 µg/mL,~0.03 µg/mL,19.9,3.28 nM,0.0094 s⁻¹,2.86e+06 M⁻¹ s⁻¹
"Cross326 (antibody, human IgG1, kappa, V domains shown) VH: EVQLLESGGGLVQPGGSLKLSCAASGFTFNTYAMNWVRQAPGKGLEWVARIRSKYNNYATYYADSVKDRFTISRDDSKNTAYLQMNNLKTEDTAVYYCVRHGNFGNSYVSWFAYWGQGTLVTVSS VL: ELVVTQEPSLTVSPGGTVTLTCRSSTGAVTTSNYANWVQQKPGQAPRGLIGGTNKRAPGTPARFSGSLLGGKAALTLSGVQPEDEAEYYCALWYSNPWVFGGGTKLTVLR",,,,,,~0.03 µg/mL,16.5,2.73 nM,0.0386 s⁻¹,1.41e+07 M⁻¹ s⁻¹

# Source: US20260125472A1 (HEFEI TG IMMUNOPHARMA, published 2026)
